In paper PMC10786891, “Massively parallel profiling of RNA-targeting CRISPR-Cas13d”:
Changes are numbered by the printed parent chain. Names may count otherwise.

T1: EsCas13d, nuclease-dead (Eubacterium siraeum, UniProt B0MS50, R295A;H300A;R849A;H854A)
T1 sequence: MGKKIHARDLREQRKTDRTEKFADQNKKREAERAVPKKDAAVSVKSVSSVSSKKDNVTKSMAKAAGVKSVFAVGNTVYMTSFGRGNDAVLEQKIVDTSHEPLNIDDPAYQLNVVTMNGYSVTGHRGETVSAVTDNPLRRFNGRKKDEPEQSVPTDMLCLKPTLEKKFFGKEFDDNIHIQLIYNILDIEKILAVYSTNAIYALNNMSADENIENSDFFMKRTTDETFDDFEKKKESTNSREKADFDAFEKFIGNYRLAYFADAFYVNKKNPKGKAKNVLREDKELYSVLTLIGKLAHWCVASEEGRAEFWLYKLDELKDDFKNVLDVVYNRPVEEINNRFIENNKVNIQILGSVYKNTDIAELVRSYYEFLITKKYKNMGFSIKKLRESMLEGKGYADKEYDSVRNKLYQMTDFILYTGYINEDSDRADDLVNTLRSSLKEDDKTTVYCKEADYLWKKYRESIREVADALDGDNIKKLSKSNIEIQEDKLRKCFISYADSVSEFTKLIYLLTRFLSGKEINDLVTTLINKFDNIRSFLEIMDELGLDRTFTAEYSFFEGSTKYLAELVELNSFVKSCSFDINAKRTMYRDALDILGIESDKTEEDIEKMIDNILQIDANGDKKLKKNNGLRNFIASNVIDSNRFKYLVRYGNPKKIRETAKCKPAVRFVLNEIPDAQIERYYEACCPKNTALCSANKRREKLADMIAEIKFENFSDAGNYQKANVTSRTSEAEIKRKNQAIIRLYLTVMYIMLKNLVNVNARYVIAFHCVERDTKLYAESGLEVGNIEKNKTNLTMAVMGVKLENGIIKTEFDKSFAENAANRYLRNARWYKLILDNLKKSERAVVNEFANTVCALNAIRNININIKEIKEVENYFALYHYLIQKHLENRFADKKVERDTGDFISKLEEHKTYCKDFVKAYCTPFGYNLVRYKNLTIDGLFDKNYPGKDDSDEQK

B1: target 2 MT 5'PFS GAG 3'PFS AUG (mixed)
RNA 1: CACCCGUGCAAAAUUGCAGGGGUCUAAAACCUUCUCCAAAUUGUUUCAUCCU
RNA 2: GGGAAUGGAUCCACAUCUACGAAUUCGAGAGGAUGAAACAAUUUGGAGAAGAUGAGAUCGGAAGAGCACACGU
B2: target 2 MT 5'PFS CUU 3'PFS AAC (mixed)
RNA 1: B1 RNA 1
RNA 2: B1 RNA 2 with G27C, A28U, G29U, U53A, G54C
B3: target 2 MT 5'PFS CUU 3'PFS AAA (mixed)
RNA 1: B1 RNA 1
RNA 2: B1 RNA 2 with G27C, A28U, G29U, U53A, G54A
B4: target 2 MT 5'PFS UUG 3'PFS CAG (mixed)
RNA 1: B1 RNA 1
RNA 2: B1 RNA 2 with G27U, A28U, A52C, U53A
B5: target 1 insG 3' of 2 (mixed)
RNA 1: CACCCGUGCAAAAAUGCAGGGGUCUAAAACUGAGCGGAUAACCUCUCUAUGG
RNA 2: GGGAAUGGAUCCACAUCUACGAAUUCGUACCAUAGAGAGGUUAUCCGCUCGACCGAGAUCGGAAGAGCACACGU
B6: target 2 MT 5'PFS AGU 3'PFS AGG (mixed)
RNA 1: B1 RNA 1
RNA 2: B1 RNA 2 with G27A, A28G, G29U, U53G
B7: target 2 MT 5'PFS UUG 3'PFS CAA (mixed)
RNA 1: B1 RNA 1
RNA 2: B1 RNA 2 with G27U, A28U, A52C, U53A, G54A
B8: target 2 MT 5'PFS UUG 3'PFS CAC (mixed)
RNA 1: B1 RNA 1
RNA 2: B1 RNA 2 with G27U, A28U, A52C, U53A, G54C
B9: target 2 MT 5'PFS CCC 3'PFS UUA (mixed)
RNA 1: B1 RNA 1
RNA 2: B1 RNA 2 with G27C, A28C, G29C, A52U, G54A
B10: target 2 MT 5'PFS UUC 3'PFS AAC (mixed)
RNA 1: B1 RNA 1
RNA 2: B1 RNA 2 with G27U, A28U, G29C, U53A, G54C
B11: target 2 MT 5'PFS AGU 3'PFS AGU (mixed)
RNA 1: B1 RNA 1
RNA 2: B1 RNA 2 with G27A, A28G, G29U, U53G, G54U
B12: target 2 MT 5'PFS UUG 3'PFS CAU (mixed)
RNA 1: B1 RNA 1
RNA 2: B1 RNA 2 with G27U, A28U, A52C, U53A, G54U
B13: target 2 MT 5'PFS CAC 3'PFS CUC (mixed)
RNA 1: B1 RNA 1
RNA 2: B1 RNA 2 with G27C, G29C, A52C, G54C
B14: target 2 MT 5'PFS ACA 3'PFS AAA (mixed)
RNA 1: B1 RNA 1
RNA 2: B1 RNA 2 with G27A, A28C, G29A, U53A, G54A
B15: target 2 MT 5'PFS CUG 3'PFS AUG (mixed)
RNA 1: B1 RNA 1
RNA 2: B1 RNA 2 with G27C, A28U
B16: target 1 insA 3' of 21 (mixed)
RNA 1: B5 RNA 1
RNA 2: GGGAAUGGAUCCACAUCUACGAAUUCGUACCAAUAGAGAGGUUAUCCGCUCACCGAGAUCGGAAGAGCACACGU
B17: target 1 insA 3' of 10,insA 3' of 3 (mixed)
RNA 1: B5 RNA 1
RNA 2: GGGAAUGGAUCCACAUCUACGAAUUCGUACCAUAGAGAGGUUAAUCCGCUACACCGAGAUCGGAAGAGCACACGU
B18: target 2 MT 5'PFS GGA 3'PFS UCG (mixed)
RNA 1: B1 RNA 1
RNA 2: B1 RNA 2 with A28G, G29A, A52U, U53C
B19: target 2 MT 5'PFS CUG 3'PFS AUA (mixed)
RNA 1: B1 RNA 1
RNA 2: B1 RNA 2 with G27C, A28U, G54A
B20: target 2 MT 5'PFS GGA 3'PFS UCA (mixed)
RNA 1: B1 RNA 1
RNA 2: B1 RNA 2 with A28G, G29A, A52U, U53C, G54A
B21: target 2 MT 5'PFS ACA 3'PFS AAG (mixed)
RNA 1: B1 RNA 1
RNA 2: B1 RNA 2 with G27A, A28C, G29A, U53A
B22: target 2 MT 5'PFS GGA 3'PFS UCC (mixed)
RNA 1: B1 RNA 1
RNA 2: B1 RNA 2 with A28G, G29A, A52U, U53C, G54C
B23: target 2 MT 5'PFS CAG 3'PFS CCG (mixed)
RNA 1: B1 RNA 1
RNA 2: B1 RNA 2 with G27C, A52C, U53C
B24: target 2 MT 5'PFS CAC 3'PFS CUU (mixed)
RNA 1: B1 RNA 1
RNA 2: B1 RNA 2 with G27C, G29C, A52C, G54U
B25: target 2 MT 5'PFS CUG 3'PFS CGC (mixed)
RNA 1: B1 RNA 1
RNA 2: B1 RNA 2 with G27C, A28U, A52C, U53G, G54C
B26: target 2 MT 5'PFS GGA 3'PFS UCU (mixed)
RNA 1: B1 RNA 1
RNA 2: B1 RNA 2 with A28G, G29A, A52U, U53C, G54U
B27: target 2 MT 5'PFS CUG 3'PFS AUU (mixed)
RNA 1: B1 RNA 1
RNA 2: B1 RNA 2 with G27C, A28U, G54U
B28: target 1 G5U,G17A (mixed)
RNA 1: B5 RNA 1
RNA 2: GGGAAUGGAUCCACAUCUACGAAUUCGUACCAUAAAGAGGUUAUCCUCUCACCGAGAUCGGAAGAGCACACGU
B29: target 2 MT 5'PFS ACA 3'PFS AAU (mixed)
RNA 1: B1 RNA 1
RNA 2: B1 RNA 2 with G27A, A28C, G29A, U53A, G54U
B30: target 2 MT 5'PFS UAA 3'PFS UGU (mixed)
RNA 1: B1 RNA 1
RNA 2: B1 RNA 2 with G27U, G29A, A52U, U53G, G54U
B31: target 2 MT 5'PFS CAA 3'PFS UCC (mixed)
RNA 1: B1 RNA 1
RNA 2: B1 RNA 2 with G27C, G29A, A52U, U53C, G54C
B32: target 2 MT 5'PFS GGA 3'PFS CCG (mixed)
RNA 1: B1 RNA 1
RNA 2: B1 RNA 2 with A28G, G29A, A52C, U53C

target: T1, EsCas13d, nuclease-dead; test: crRNA (strand 1, pre-loaded); Mg2+; 40 mM Tris-HCl pH 7.5, 150 mM NaCl, 6 mM MgCl2, 1 mM DTT, 0.1% Tween-20, 0.2 mg/ml BSA; 25 C; 10 min per concentration, then washed; settings: tags: His6-TwinStrep-SUMO cleaved; N-terminal SNAP kept (SNAP-Surface 488); label: 3' end held by stalled T7 RNA polymerase

Binder | Kd [nM]
B1 | 5.9 ± 0.4
B2 | 4.3 ± 0.5
B3 | 2.9 ± 0.35
B4 | 11.8 ± 0.9
B5 | 8.6 ± 0.4
B6 | 12.3 ± 1.9
B7 | 9.9 ± 1.4
B8 | 16.4 ± 2.2
B9 | 1.25 ± 0.21
B10 | 15 ± 4
B11 | 6.8 ± 0.7
B12 | 9.1 ± 1.2
B13 | 2.9 ± 1
B14 | 8.3 ± 1.4
B15 | 3.17 ± 0.32
B16 | 13.8 ± 1.2

Binder | Kd [nM]
B17 | 8.56 ± 0.34
B18 | 17.4 ± 2.7
B19 | 2.63 ± 0.24
B20 | 10.4 ± 1.4
B21 | 10 ± 5
B22 | 24.2 ± 2.8
B23 | 11.9 ± 3
B24 | 2.31 ± 0.3
B25 | 4 ± 0.4
B26 | 22 ± 4
B27 | 2.57 ± 0.22
B28 | 91 ± 15
B29 | 5.7 ± 1.3
B30 | 9.5 ± 1.5
B31 | 7.3 ± 0.6
B32 | 12.3 ± 1.2
